Measurements: patent US20250059297A1

Tests used:
[1] = molecular target: HER2 and TROP2 expressed together on NCI-H292 cells and NCI-N87 cells (human); experiment: cell-based or functional assay
[2] = molecular target: human HER2 (hHER2) on cells (human); experiment: cell-based or functional assay
[3] = molecular target: human HER2 (hHER2) on cells (human); experiment: flow cytometry, NCI-H292 cells (express HER2 and TROP2)
[4] = molecular target: human HER2 (hHER2) on cells (human); experiment: flow cytometry, NCI-N87 cells (express HER2 and TROP2)

Substance | endocytosis, direct detection: MFI [1] | endocytosis, direct detection: Percentage of Positive Population [1] [%] | endocytosis, indirect detection: MFI [1] | endocytosis, indirect detection: Percentage of Positive Population [1] [%] | endocytosis: MFI [2] | endocytosis: Percentage of Positive (%) [2] [%] | endocytosis, direct detection: MFI [2] | endocytosis, direct detection: Percentage of Positive Population [2] [%] | endocytosis, indirect detection: MFI [2] | endocytosis, indirect detection: Percentage of Positive Population [2] [%] | flow cytometry test result (%) [3] [%] | flow cytometry test result (%) [4] [%]
Isotype control (antibody) | 4900 | 1.86 | 4920 | 1.88 | 9840 | 1.1 |  |  |  |  |  | 
Pertuzumab analog (antibody) |  |  |  |  | 100000 | 97.1 | 15700 | 74.7 | 21000 | 79.5 |  | 
Trastuzumab analog (antibody) |  |  |  |  | 50400 | 88 | 18900 | 82.5 | 23400 | 87.3 | 97.8 | 98.5
